In US20100183544A1 (CSL, published 2010):

T1: IL-11R-Fc
T1 sequence (Q64385 whole entry, species assumed, looked up): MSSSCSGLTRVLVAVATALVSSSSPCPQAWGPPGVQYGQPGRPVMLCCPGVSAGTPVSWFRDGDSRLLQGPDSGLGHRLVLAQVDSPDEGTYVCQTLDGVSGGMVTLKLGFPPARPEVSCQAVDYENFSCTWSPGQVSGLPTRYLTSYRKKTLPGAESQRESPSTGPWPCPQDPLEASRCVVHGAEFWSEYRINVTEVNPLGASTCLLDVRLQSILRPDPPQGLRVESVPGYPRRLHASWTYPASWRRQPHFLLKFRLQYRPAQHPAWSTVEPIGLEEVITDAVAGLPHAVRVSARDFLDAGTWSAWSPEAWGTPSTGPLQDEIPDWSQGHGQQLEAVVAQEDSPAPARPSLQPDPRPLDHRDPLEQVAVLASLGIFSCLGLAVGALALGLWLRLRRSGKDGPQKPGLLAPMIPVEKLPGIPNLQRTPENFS

T2: murine IL-11R on Ba/F3 cells stably transfected with murine IL-11R/gp130 (murine, UniProt Q64385 24-432)
T2 sequence (looked up): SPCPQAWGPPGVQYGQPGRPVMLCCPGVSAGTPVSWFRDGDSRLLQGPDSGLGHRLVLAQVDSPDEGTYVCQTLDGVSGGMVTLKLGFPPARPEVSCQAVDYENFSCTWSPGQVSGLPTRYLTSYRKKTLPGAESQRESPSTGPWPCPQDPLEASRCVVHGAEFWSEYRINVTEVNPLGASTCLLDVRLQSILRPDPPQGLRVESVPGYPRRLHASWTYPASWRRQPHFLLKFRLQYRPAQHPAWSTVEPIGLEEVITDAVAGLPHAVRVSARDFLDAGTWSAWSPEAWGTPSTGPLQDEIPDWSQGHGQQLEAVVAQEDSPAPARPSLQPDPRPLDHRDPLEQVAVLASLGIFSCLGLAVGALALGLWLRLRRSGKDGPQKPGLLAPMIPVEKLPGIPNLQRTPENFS

B1: PEGylated IL-11 mutein (SEQ ID NO: 3 with a single 40 kDa PEG on the Cys at position 147) (ligand)
chain: VSSDPRADLDSAVLLTRSLLADTRQLAAQMRDKFPADGDHSLDSLPTLPAIDYTLGSLQLPGVLTRLRVDLMSYLRHVQWLRRAGGPSLKTLEPELGALQARLERLLRRLQLLMSRLALPQAAPDQPVIPLGPPASACGSIRAAHAILGGLHLTLDWAVRGLLLLKTRL
modifications: mPEG2-maleimide (single 40 kDa PEG moiety) on the Cys residue introduced at position 147 (mature murine IL-11 numbering)

What was measured:
IL-11R-Fc [1] = molecular target: T1, IL-11R-Fc; test: competition ELISA on IL-11R-Fc; reference murine W147A IL-11
IL-11R-Fc [2] = molecular target: T1, IL-11R-Fc; test: IL-11R binding ELISA; reference non-PEGylated mutein
[3] = molecular target: T2, murine IL-11R on Ba/F3 cells stably …; test: cell-based or functional assay

Molecule	fold higher binding affinity than murine W147A IL-11 (IL-11R-Fc [1]) [fold]	fold reduction of IL-11R binding affinity relative to non-PEGylated mutein (IL-11R-Fc [2]) [fold]	fold reduction against non-PEGylated mutein in antagonism of IL-11-induced Ba/F3 cell proliferation [3] [fold]
IL-11 mutein of SEQ ID NO: 1 (murine IL-11 with AMSAG at positions 58-62 replaced by PAIDY and W147A), N-terminal His-tagged (from UniProt P47873 22-199) (ligand)	20	–	–
B1	–	5	~10
